Here are results for 41 sequences from the nanobody polyreactivity screen of Harvey et al. (2022).

The data set in a line: yeast display, Sf9 membrane polyspecificity reagent, FACS + sequencing; frameworks hold sequencing errors. A digest of the protocol:
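Sorting gates, low and high (top ~1%), were placed on anti-HA fluorescence to track expression and on streptavidin fluorescence to track reagent binding. A clone's polyreactivity label is taken from the gate it came out of. The reagent was 10% biotinylated, detergent-solubilized Sf9 membrane, applied for 1 hour at 4 °C to galactose-induced yeast display cells.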
Regarding “QVQLVESGGGLVHAGGSLRLSCAASGSTFYYNAMGWNRPAPGKETELVARISRSGGSTYADSVKGRFTISRDNAKNTVYLQMNSLKPEDTAVYYCNADAYGTPEFTSYAVRYDYWGQGTQVTVSS”, the “polyreactivity (PSR sort gate)” value is reported as “low polyreactivity”.

As to “QVQLVESGGGLVQAGGSLRLSCAASGITFGRNTMGWSRQAPGKERELVAAIDSGGNTYADSVKGRFTISRDNAKNTVYLQMNSLKPEDTAVYYCAVDGGEFSSYGYWGQGTQVTVSS”, the “polyreactivity (PSR sort gate)” value is recorded as “low polyreactivity”.

“QVQLVESGVCLVQAGGSLRLSSAASGRTLDQNTMGRYRQAPGKERELVASITYSGGITYYADSVKGRFTISSDNAKNTVYLQMNSLKPEATAVYYCAAQEHGTYDNILGEPLDYWGQGTQVTVSS”: the “polyreactivity (PSR sort gate)” value is listed as “low polyreactivity”.

In the case of “QVQLVESGGGLVQAGGSLRLSCAASGSIFASYALGWYRQAAGKEREFVAAISQSGSRTYNADSVKGRFTISRDNANNTVSLHMNSLKPEDTAVYYCNAKRGTWNYDYWGQGTQVTVSS”, the “polyreactivity (PSR sort gate)” value is “high polyreactivity”.

With “QVQLVESGGGLVQAGGSLRLSCAASGRTFSVNAMGWYRQAPGKERELVAAISWDGGSTYYADSVKGRFTISRDNAKNTVYLQMNSLKPEDTAVYYCIKDLYYAYDYWGQGTQVNVSS”, the “polyreactivity (PSR sort gate)” value was “low polyreactivity”.

With “QVQLVESGGGLVQAGGSLRLSCAASGSTFADNAMGWYSQARGKAGEFVAGISTNGGSTYYADSVKGRFTISRDNAKNTVYLQMNSLKPEDTAVYYCSAVNYYDQYGDYYWGQGTQVTVSS”, the “polyreactivity (PSR sort gate)” value was “low polyreactivity”.

Regarding “QVQLEESGGGLVQAGGSLRLSWAASGSTFVPNAMGWYRQAPGKERELVAAISYSGGTTYYADSVKGRFTISRDNAKNTVYLQMNSLKPEDTAVYYCAARSKGAAAILDDYWGQGTQVTVSS”, the “polyreactivity (PSR sort gate)” value is “low polyreactivity”.

For the sequence “QVQLVESGGGLVQAGGSLRLSCAASGRIFSSYAMGWNRQAPGKERELVAAITDGDSTNYADSVKGRFTIARDNAKNTDYFQMNSLKPEDTAVYYCAVDILWYYPPGNYYYSSYDYWGQGTQVTVSS”, the “polyreactivity (PSR sort gate)” value is on record as “low polyreactivity”.

In the case of “QVQLVESGGGLVQAGGSLRLSCAASGSTFGPNAMGWYRKAPGKERELVAALSKRGGRTDYADSVKGRFTISRDNAKNTVYLQMNSLKPEDTAVYYCNARDGSYYQGDYWGQGNQVTVSS”, the “polyreactivity (PSR sort gate)” value is listed as “high polyreactivity”.

In the case of “QDQLVESGGGLVQARGSLRLSCAASGRIIKTNAMGWYRQAPGKERELVAAISSSGGRTYYADSVKGRFTISRDNAKNTVYLQMNSLKPEDTAVYYCAAPSLVSFGYWGQGTQVTVSS”, the “polyreactivity (PSR sort gate)” value was “high polyreactivity”.

Take “QVQLVESGGGLVKAGGSIRLSCAASGSIFYRNTMGWYRQAPRKERQLVAAISKTGGSTYYSDSVKGRFTISRDNAKNTVYVQMNSLKPEDTAVYYCNRAPYALRVLCTGIISGHDYWGQGTQVTVSS”: the “polyreactivity (PSR sort gate)” value is recorded as “high polyreactivity”.

Take “QVQLVESGGGLVQAGGSLRLSCAASGSTFYTNAMGWYRPAPGKEREFVAAISWSGSSTYADSVKGRFTISRDNAKNTVYLQMNSLKPEDTAVYYCAADWFKLRTDYYWGQGTQVTVSS”: the “polyreactivity (PSR sort gate)” value was “low polyreactivity”.

In the case of “QVQLVESGGGLVQAGGSLRLSCAASGSTFYDYAMGWYRQAPGKERELVASISSGGGTYYADSVKGRFTISRDNAKNTVYLQMNSLKPEDTAVYYCADDDYSSYVYGTFDRYDYWGQGTQVTLSS”, the “polyreactivity (PSR sort gate)” value was “low polyreactivity”.

“QVQLVESGGCLVQAGGSLRLICAASGRIIDRNAMGWYRHAPGKERELVAAISSSGSTYYADSVKGRFTISRDNAKITVYLQMNSLKPEDTAVYYCNKRARHSGDFVWGHGYWGQGTQVNVSS”: the “polyreactivity (PSR sort gate)” value is recorded as “low polyreactivity”.

Turning to “QDQLVESGGGLVQAGGSLRLICAASGRTFTFYAMGWSRQAPGKERELVAAIRRGGSTNYADSVKGRFTISRDNAKNTVYLQMNSLKPEDTAVYYCNKRVWYPYWTLDYWGQGTQVTVSS”, the “polyreactivity (PSR sort gate)” value is reported as “low polyreactivity”.

For “QVQLVESGGGLVQAGGSLRLSCAASGNIFDRYAMGWYRQAPGKERELVAGITWSGGSTYYADSVKGRFTISRDNAKNTVYLQMNSLKPEDTAVYYCGQANYYWGQGSQVTVSS”, the “polyreactivity (PSR sort gate)” value was “low polyreactivity”.

Regarding “QVQLVESGGGLVQAGGSLRLSCAASGSIFDNYAMGWYRQAPGKEREFDAGISWSGGSTRYADSVKGRFTISRDNAKNTVYLQMNSLKPEDTAVYYCNTGYGLVDFLYGYYYWGQGTQVTVSS”, the “polyreactivity (PSR sort gate)” value is “low polyreactivity”.

Consider “QVQLVESGGGLVQAGGSLRLSCAASGRIFTGNAMGWYRQAPGKESQLVAAITRNGGSTYYADSVKGRFTISRDNEKYTVYLQMNRLKPEDTAVYYCNARYSTTYYGTIYRGMDYWGQGSQVTVSS”, for which the “polyreactivity (PSR sort gate)” value is “high polyreactivity”.

Turning to “QVQLVESGGRLVQAGGSLRLSCAASGIPFEYYAMGWYRQAPGKERELVAAIDTGGSTNYADSVKGRFTISRDNAKNTVYLQMNSLKPEDTAVYYCAADWSWWDGEDYHFEYDYWGQGTQVTVSS”, the “polyreactivity (PSR sort gate)” value was “low polyreactivity”.

In the case of “QVQLVESGGGLVQAGGSLRLSCAASGRIIGFNAMGWYRQAPGKERELVASIRTTGGSTRYADSVKGRFTISRDNAKNTVYLQMNSLIPEDTAVYYCAARWGKTLWQYNYWGQGTQVTVSS”, the “polyreactivity (PSR sort gate)” value is reported as “high polyreactivity”.

As for “QVQLVESGAGLVQAGGSLRLSCAASGSIFPRYAMGWYRQAPWTERELVAAITNGGSTDYADSVKGRFTISRDNAKNTVYLQMNSLKPEDTAVYYCAADLAVGIYPEDGEYWGQGTQVTVSS”, the “polyreactivity (PSR sort gate)” value is “low polyreactivity”.

Take “QVQLVESGGGLVQAGGSLRLSCAASGFIFTVNAMGWYRQAPGKERELVAAITQSCGNTSYADSVKGRFTISRDNAKNTVYLQMNSLKPEDTAVYYCNASSDTSRYGVSTYYYWGQGTQVTVSS”: the “polyreactivity (PSR sort gate)” value is “low polyreactivity”.

In the case of “QVQLVESGGGLVQAGGSLRLSCAASGSTFTKYAMGWYRQAPGKERELVAAITASGGNTYYADSVKGRFTISRDNAKKTVYLQMNSLKPEDTAVYYCAARQYRYKYDYWGQGTQVTVSS”, the “polyreactivity (PSR sort gate)” value is given as “high polyreactivity”.

In the case of “QVQRVESGGGLVQAGGSLRISCAASGRTFRKYAMGWYRQARGKERELGAAMSWSGGSTYYANSVKGRFPISRDKPKNTVYLQMNSLKPEETAVYYCASDVDRFYTYKYDYWGQGTQVTVSS”, the “polyreactivity (PSR sort gate)” value is listed as “low polyreactivity”.

Take “QVQLVESGGGLVQAGGSLRLSCAASGITFKYYAMGWYRQAPGKERELVAAISRSGGTTYYADSVKGRFTISRDNAKNTVYLQMNSLKPEDTAVYYCNKYTHYYDYDYWGQGTQVTVSS”: the “polyreactivity (PSR sort gate)” value is “high polyreactivity”.

For the sequence “QVQLVESGGGLVQAGGSLRLSCAASGRTIDHYAMGWYRQAPGKDRELVAAISTTGGSTYYADSVKGRFTISRDNAMNTVYLQMNSLKPEDTAVYFCAARGLRTGGYWGQGTQVTVSS”, the “polyreactivity (PSR sort gate)” value was “high polyreactivity”.

As to “QVQLVESGGGLVQAGGILRLSCAASGYTFWDYAMGWYRQAPGKEREFVAGISFSDGGTYYADSVKVRFTISRDNAKNTVYLQMNSLKPEDTAVYYCAVPQDSGYGVSEHYNWGQGTQVTVSS”, the “polyreactivity (PSR sort gate)” value is listed as “low polyreactivity”.

In the case of “QVQLVESGGGLVQAGGSLRLSCAASGITFRYYAMGWYRQAPGKERELVAAISYSGGSTYYADSVKGRFTISRDNAKNTVYLQMNRLKPEDTAVYYCNRVWTRLVTYPEYDYWGQGTQVTVSS”, the “polyreactivity (PSR sort gate)” value is on record as “high polyreactivity”.

As to “QVQLVESGGGLVQAGGSLRISCAASGRTFYPYAMGWYRQAPGKEREFVAAITLTGDSTYYADSVKGRFTISRDNAKNTVYLQMNSLKPEDTAVYYCNAGVGARESDYWGQGTQLTVSS”, the “polyreactivity (PSR sort gate)” value was “low polyreactivity”.

As to “QVQHEESGGGLVQAGGSLRLSCAASGSIFLHYAIGWYRQAPGKERVFVAAISFRSGSTYYADSVKGRFTISRDNAKNTVYLKLNSLKPEDTAVYYCASKSYNFIPGIREYDYWGQGTQVTVSS”, the “polyreactivity (PSR sort gate)” value is reported as “low polyreactivity”.

Take “QVQLVESGGGLVQAGGSLRLSCAASGYIFTEYDMGWSRQAPGKERELVAANSESGGSTYYADSVKGRFTISRDNAKNTVYLQMNSLKPEDTAVYYCAADQYYYWYTHQSIGYDYWGQGTQVTVSS”: the “polyreactivity (PSR sort gate)” value was “low polyreactivity”.

For “QVHLVESGGGLVQAGGSLRLSCAASGGIFDPYAMGWYRQAPGKERELVAAITNSGGSTYYADTLKGRFTISRDNAKNTVDLQMNSLKPEDTAVSYCAAEGLYVGYDYWGQGTEVTVSS”, the “polyreactivity (PSR sort gate)” value was “low polyreactivity”.

With “QVQLVESGGGLVQAGGRLRLSCAASGTTIVYYAMGWSRQAPGKEREMVAAISWSGTRTYYADSVKGRFTISRDTGKNSVYLQMNSLIPEDTAVYYCAAKGGYSTGRPTFTIFNYWGQGTQVTVSS”, the “polyreactivity (PSR sort gate)” value was “high polyreactivity”.

With “QVQLVESGGGLVQAGGSLRLSCAASGRTFYEYTMGWYRQAPGKERELVAAITWSVGSTYYADSVKGRFTISRDNAKNTVYLQMNSLKPEDTAVYYCAAYYYVWYYYWGQGTQVTVSS”, the “polyreactivity (PSR sort gate)” value is given as “low polyreactivity”.

On to “QVQLVESRGGLDQAGGSLRLSCAASGSTFYMYAMGWYRQAPGKERELVASITSGDGSTYYADSVKGRFTISRDNAKNTVYLQMNSLKPEDTAVYYCNAVLEGWFYQYDYWGQGTQVTVSS”, for which the “polyreactivity (PSR sort gate)” value was “low polyreactivity”.

Turning to “QVQLVESGGGLVQAGGSLRLSCAASGFTFSRYAMGWYRQAPGKERELVAVITWNGGRTYYADSVKGRFTISRDNAKNTVYLLMNSLKPEDTAVYYCKAYYFFLPYRYSTYDYWGQGTQVTVSS”, the “polyreactivity (PSR sort gate)” value was “high polyreactivity”.

Regarding “QVHLVESGGGLLQAGGSLRLSCAASGSTFSINGMGWYRQAPGKERELVAAITWRGTRTYYADSVKGRFTISRDNAKNTVYLEMNSLKPEVTAVYYCAATGSGEASFYYWGQGTQVTVSS”, the “polyreactivity (PSR sort gate)” value is “high polyreactivity”.

Turning to “QVQLVESGGGLVQAGGSLRLSCAASGRTFYTYAMGWYRQAPGKEREFVAAITGSGGSTYYADSVKGRFTISRDNAKNTVYLQLNSLKPEDTAVYYCNARSPGDVWYYYWGQGTQVTVSS”, the “polyreactivity (PSR sort gate)” value is reported as “low polyreactivity”.

For the sequence “QVQHVESGGGLVQAGGSLRLSCAASGVIIIGNAVGWYREAPVKEWEFVASIRGVGSTNYADSVKGRFTISRDNAKNTVYVQMNSLKPADSAVYYCATSVDRALYTQTRGDYEYWGQGTQVTVSS”, the “polyreactivity (PSR sort gate)” value was “low polyreactivity”.

Take “QVQLVESGAGLVQAGGSLRLSCAASGSTFYRYVMGWYRQAPGKERELVAAISGSGVRTYYADSVKGRFTISRDNAKNTVYLQMHSLKPEATAVYYCAASVRSRSQTYLRYDYWGQGTQVTVSS”: the “polyreactivity (PSR sort gate)” value is recorded as “high polyreactivity”.

Turning to “QVQLVESGGCLVQAGGSLRLSCAASGSIFAYYAMGWYRQAPGKERELVAAITSGDSTYYADSVKGRFTISRDNAKNTVYLQMNSLKPEDTAVYYCAADHIWFYFYLYDYWGQGTQVTVSS”, the “polyreactivity (PSR sort gate)” value is listed as “low polyreactivity”.
